# Assay: soluble on expression in E. coli; label from the status in PepcDB or PDB records
row,Sequence,soluble on expression in E. coli
1,MAHHHHHHMSSESYAIGQEELVYDRMFRVMRTVGEMMRDRKYQVPSSIIPETVGQFCEQYVDREGRRIYRERMTVPCERVGGTHRSRAMVFFASELGMEGMKGYCQTAMDANCERVIIVTHGKVNATVKRYVDCINRSGTGQKVQLFDEDDLVVNITHHELVPKHTQLEDEEVKEMLEAHSLELNMLPRILSTDPVAAYLGLERGRVVRIERKSVSAGFYVTYRQVV,not soluble
2,MAFRMSRDHADFVAHGGTEWDDGAFVNVKKIKIFHDWAGITLVQFDYIDGTGAIVSGLDHGTEPFQFDREHGRVPVEGARAEFWLRDDEYITIVTAFGGYCVRKIEFITNKRTFDFGGFN,soluble
3,MGSSHHHHHHSSGLVPRGSHMRTVTGAILAMNLEVKDFVHRDVEEADRRLREIGARKILLQLPDGLKPYAFDYFTYLSQRYDVILSSSPVYGACDIGPSYLYDRVDAIVQVGHSIMRNVKYPRPVIFIEHYRTVDVEDINTEALKNYRRIGLIYSIQYRPVADRVKRILESKGFEVIIGRSDRRMTYDGQVLGCNFSSVHSVEAEVEAFVIVSTGSFHALGSQISTERPVFLLDLNEMSLRSMEKEADTFIRKRYAQIYRAMDAKRICFLVDTRIGQRREKLARMLMDRARDLGKEAVLAYTDNISDQDIQNMGCDLAVYTGCPRVPIDDQDRFTVPVLTPAEFSMAFFKSSKRYVLDEIVSVDEFTDQ,soluble
4,MKIITCYKCVPDEQDIAINNADGTLDFSKADSKISQYDLNAIEAACQLKQQLGDAQVVAMSVGGKALTNAKGRKDVLSRGPDELIVVIDDQFEQALPQHTATALAAAAQKSGFDLLICGDGSSDLYAQQVGLLVGEALNIPAINGVSKILSLTDSTLTVERELEDEVETLSIPLPAVIAVSTDINTPQIPSMKAILGAAKKPVQVWSPADIGLNSVPAYSAQQVAAPKQRERQRVVIEGDGEEQIAAFVENLRKII,not soluble
5,SEEDRRLWMEAMDGREPVYNSNKDNQSEGTAQLDSIGFSIIKKCIHAVETRGINEQGLYRIVGVNSRVQKLLSILMDPKTATETETEICAEWEIKTITSALKTYLRMLPGPLMMYQFQRSFIKAAKLENQESRVSEIHSLVHRLPEKNRQMLHLLMNHLAKVADNHKQNLMTVANLGVVFGPTLLRPQEETVAAIMDIKFQNIVIEILIENHEKIFNTVPETPPSNSQLLL,soluble
6,LIERIEGFEPQWWEQGGAKPEKPEMREPRQRNRYESAKAQREKNTRPENAANDAGAACGKIAGRSRRSRREHRTCALLQPRYGVK,soluble
7,MSLKNNSEVFNVLHFSDIHIQLRYNVGAEANCTNLPCGAPDSYNKQLLPSSYNFSSYYQHFSPNVAKMEFSFYPDAHYDENSQYIKGDYYDFPLYRGWNFKNAPATSFGGYLTDSPAVLMNSSLISMAKMHKEKNFEFAIFTGDVVDHLLLSCTPEYTKEEEVKSFKAMKFFFNNLTVLPALGNHETGEYGQLSPIAYDFNGSYSWNQDEMVDLWINNEWFPAKDRYDLKSHYAGFSYVTNRGLKVIGLNSNAYYQKNLWSYIDLSTNPDLFGQWEFLVNELIESEEKGQRVWIMAHIPTTDYDTLPLQSRIFGKIVERFSPYTIANIFFAHTHMDQTHILYSTNSSKEAEDIINMSWVMQSVTPLANYNPSWRYYEVENESFNIINSFNYMTKLNDTEGHHHHHH,soluble
8,MPVVKSIYSSLKSFADYFSPSAKTSSQQVVILRMPGNPLELVGLVTRRTLEGLPDGFTQGDRVAVYLPMGYMIGGYTVFVPTEWVHPIQMSVEEAMRSSLIAWMARLEHHHHHH,not soluble
9,MGSDKIHHHHHHMNDYDNNSNINEDAWNKETYSAWVKRFGTPDTAAKKISKDPSKILSVLHEKLGDVKGKKIMNIMGSNGSKAVALALLGADVTVVDFSKGNMDYALDLAKEADVKIDYILSDILKLPEDKLTADYDIVFAEMGIIHYFIDLKPFIKTINRLLKEGGLFVLRDFHPVSTKLITSRGSTAKVRKHKVTGDYFDTSLEEKDAAFSKYLIDNKEPEKVLLRKWTLGEIVTSVAEGGFKIKKLDEEPNLSCDNFDKGIPKSFTLTSEKLS,not soluble
10,MGSDKIHHHHHHMKYSLGPVLYYWPKETLEDFYQQAANCSADTIYLGEAVCSKRRATKVGDWIEMAKTLAASGKQIVLSTLALVQASSELGELKRYVDNGEFLIEASDLGVVNLCAERKLPFVAGHALNCYNAVTLRLLRKQGMVRWCMPVELSRDWLANLLTQCEELGIRNQFEVEVLSYGHLPLAYSARCFTARSEDRPKDECETCCIKYPTGRSMLSQENQQVFVLNGIQTMSGYVYNLGNELTSMHGLVDMVRLSPMGNETFAMLEAFRANENGAAPLDLTSNSDCNGYWKRLPGLVLHA,not soluble
11,MSLAPNPYLTGRTLNIAHQGGEALWPSNTLTAYRGAVALGVDLLEMDLHATRDGALVLSHDATLDRLTDTQGRIADLTLEQVLRADAGYTLTPAGGSGFPFRGQGVQVAQLKDVLREFPNTPLIIELKQASPSIAAPFCAELRRAGATGRVIAASFSDAALNEFRRLCPEVMTSMTERELRPLVLLSKVGLSALAPTPGQVAQVPVRSGGIEIVTPAFVRALHARGVAVQVWTIDDEAEMRRLVQMGVDGVITNRPDLLKKVLAEREGHHHHHH,not soluble
12,MSIITRLFNNSDFEKLNQLCKLYDDLGYPTNENDLKKRLKKITNHDDYFLLLLIKENKIIGLSGMCKMMFYEKNAEYMRILAFVIHSEFRKKGYGKRLLADSEEFSKRLNCKAITLNSGNRNERLSAHKLYSDNGYVSNTSGFTKQL,soluble
13,MKATLFVREFLLNPRTIGAILPSSDYLAEKMMASVCFEQAKYIIEYGPGTGVFTDKILRYRHPDTVVMIIEHNREFFCILNEKYQDEKNVIIINGSAEHIETYVKEHNIPFVDYIISGLPFASLPLHVSNAILNKARYLLGVKGKFITFQYTQTKVRLFTQFFNQMTVERVYRNLPPAFVFSCYNEKLEHHHHHH,soluble
14,MSLVIGYMESNKNNSKWKDILMDGEILQIENIFNGSHNKKNNGLIIFKIKDKLGNVNKLTFVSKSADMSIQVEKAERLIKKGSYYRHFKGNYYKVLYIAENSEDKEKVVVYQAMYGEKKVYVRPFKMFISKVDHCKYPEIEQEYRFMSISELENQFGTSVVASWNMQNIYVDHTIEGHHHHHH,not soluble
15,MEVFLLKLDSKNCPNKRLKTLEEVPENTAITVGNFDGVHLGHRYLIENLKKKAKSENLKTLVLTFCPHPLKVLAPQLLPCELTDINEKIEIFRELGVDYLCFIRFDKEFAKIRAREFLEKIIYEKLKCRYLLVGYDWRYGYRREGEIELAKEVGSELGFEVEEAKPFKIKGHIVSSTLIRRLLREGRVEEVREYLGHNYWVKRKVVKGDQRGSKIGFPTANLQNTENLCLKEGVYAVKVEDKYLGVANYGYRPTFGKKKRVLEVHILDFEGNLRGKRIKVEFLKFIREEKKFSSVEELIQQIKKDVEAVKGLSKLEHHHHHH,soluble
16,MGSDKIHHHHHHMMNNLKRILKNPRLILIFILSRYCHWIDDKTYLCIMYFIYFGKLLHLNSPRTFNEKLQWLKLYDRHPEYTQMVDKATVKEYVASIIGEKYIIPTLGVWENFDDIDFENIPSSFVLKCTHDSGGVVICENKNLFDVEKARSKLLKSMKKNYYYVGREYPYKDIKPRIIAEKYMVDESHIELKDYKIHLFHGIPNFIQVDFDRFTSHHRNLYTIDWKPLGKAIKYPAVYEREIDKPIVLDEMLELAMKLAFNIPYVRADFYCIGNKVYFGELTFYHGSGFETFSPKSFDEELGALIKLS,not soluble
17,MLTSHFPLPFAGHRLHIVDFDASSFREHDLLWLPHHDRLRSAGRKRKAEHLAGRIAAVHALREVGVRTVPGMGDKRQPLWPDGLFGSISHCATTALAVISRQRIGIDIEKIMSQHTATELAPSIIDSDERQILQASLLPFPLALTLAFSAKESVYKAFSDRVTLPGFNSAKVTSLTATHISLHLLPAFAATMAERTVRTEWFQRDNSVITLVSAITRVPHDRSAPASILSAIPR,not soluble
18,MAVDGLVSEKIKELLKELGKTYKLVVLTADTYGTLEKEFNGLPITVDKIKNEIEKEKAAEKYSPYIGIGNGNNDCLMLEKSELGILIIGEEGASTNALLKSDIVINNIKDAINLLLNEKRIIATL,not soluble
19,MGESHAPSKPKLDGELCLRPSSSVFLGDQQLYFTQEYLRTNSLNLKYVVYFTACQFSGPIAVAYSPRPASWYIWIRTISGRILKRDMAFNEPVFMEWTRAHCLLVLNKAGRAHIFSSLGEKISEVIFDSQMSDVHECRTFATSRGDSGIAVMDVDGQVSVVNSVSEPVIWSMKPPYSEMPTAWTAFQPHSQLTHILLIFEAVFLMGCQGESLREQSHAASWVDSNTKYVKCVVDDARSRIAMMTESGKIQIVSIDLSTCFCTVEITDHDIAKCINFGWVGNSAVFVQMSPSLIVFVNVSARRKPGDEVQIYEKMTANAKISIEPDGIRLFESTQVEFVEAASREKIAVLNRNPNEDGAHLYKAAQEMSQGTGHNSFAASTVIQDLYKAIDDCISTACDTWQPEEQKLLLKAARFGMAYTNTTPDTTKLMRAIKEIRVLNELRMVRTGIPLTHRQFRAIGETCVINRLIDMGSYSVAIKVAQWLGGETSENVDRVLLEWVRRSISKVSKSNMKMDQPALEALDEKISAKLLQFPHVSIADAARRAIEAKLPELARLFIRRETDDANHVAVLLQLNDVSAALQKASASQRPQLIHQVVRHLMNSESRSSYELAISRIPLAQCLYQDLVRQEGETRGASSRQMLALLEQASDFERQTLFHFDVAETERNPDERLNALRRAKDAAKSMGDKAIEEILNDVSAFAPLQIQRGQADMSVRDTVIEMAHDTAKVAQLKQQARLTDKQVLLWTIEGLAKKGKMEQLFDLAQKRSPIGYAPFVKACVRYKRLDEIKKYFAKVNGYPDLVAAHLAMKNYVEAAKLAYDRRDRDVLHAVHMKSHEDPTQCPRVGQFLRSLDQN,not soluble
20,FEKHGTYYEIFVRSFYDSDGDGIGDLKGIIEKLDYLNDGDPETIADLGVNGIWLMPIFKSPSYHGYDVTDYYKINPDYGTLEDFHKLVEAAHQRGIKVIIDLPINHTSERHPWFLKASRDKNSEYRDYYVWAGPDTDTKETKLDGGRVWHYSPTGMYYGYFWSGMPDLNYNNPEVQEKVIGIAKYWLKQGVDGFRLDGAMHIFPPAQYDKNFTWWEKFRQEIEEVKPVYLVGEVWDISETVAPYFKYGFDSTFNFKLAEAVIATAKAGFPFGFNKKAKHIYGVYDREVGFGNYIDAPFLTNHDQNRILDQLGQDRNKARVAASIYLTLPGNPFIYYGEEIGMRGQGPHEVIREPFQWYNGSGEGETYWEPAMYNDGFTSVEQEEKNLDSLLNHYRRLIHFRNENPVFYTGKIEIINGGLNVVAFRRYNDKRDLYVYHNLVNRPVKIKVASGNWTLLFNSGDKEITPVEDNNKLMYTIPAYTTIVLEKE,soluble
21,MGSDKIHHHHHHMTKLQLKYRELKIISVIAASENISHAATVLGIAQANVSKYLADFESKVGLKVFDRTTRQLMLTPFGTALLPYINDMLDRNEQLNNFIADYKHEKRGRVTIYAPTGIITYLSKHVIDKIKDIGDITLSLKTCNLERNAFYEGVEFPDDCDVLISYAPPKDESLVASFITQYAVTAYASQRYLEKHPISRPDELEHHSCILIDSMMIDDANIWRFNVAGSKEVRDYRVKGNYVCDNTQSALELARNHLGIVFAPDKSVQSDLQDGTLVPCFQQPYEWWLDLVAIFRKREYQPWRVQYVLDEMLREIRHQLAQSQQLRPEQAAESED,not soluble
22,IVPDAQDLGKSYGIRPSFIIAQAALDSDFGEKILANKYHNLFGLLAEPGTPSITLNDSSTGKKQEKQFTHYKSWKYSMYDYLAHIKSGATGKKDSYTIMVSVKNPKTLVQKLQDSGFDNDKKYAKKMTEIIDLYDL,not soluble

# From the DeepSol protein solubility set
